{
  "source": "the DeepSol protein solubility set",
  "data": [
    {"assay": "soluble on expression in E. coli; label from the status in PepcDB or PDB records", "values": [
      {"sequence": "MAKVTVILTSYNKPNTVGAAIESVLSQSFQDWELWIMDDASNEETQQVIDSYMLYPNVYYYNSQVKDEERHKSTRYATLINEAISRSTGDYLCYLTDDNYYLPERLQKMVQYLERYPSVDVVYSKQLVRTVDNQLITQAERIRPTKGTIRYAENIVDHCSVMHRRSLAEKVYETYGSYWNDDPICWHNGDAFFWNRLSAFALFYPINEVLDVCLKSPTSFQALNAFLPEYLPSGTLVKGLGADVYLIEDNHRRAITPTMFQQLHYREENVVHIPDPVLFKYKEGPAIDEHIWEQGKLFPNHRLIKASQEPHIYYVENHRKRHILTHKEFRLYKFRASEVVEVSRSFLDSIPTGPPISAHVNNQHPLPEGLLVRCGFKFYLSGNNRLYPIKSRVMKKLNLQMKNAVFLDSRAIGRYEQGETIEWKTNKCQPRFNTSSLEHHHHHH", "soluble on expression in E. coli": "not soluble"},
      {"sequence": "MGSDKIHHHHHHMVKLPPLSLYIHIPWCVQKCPYCDFNSHALKGEVPHDDYVQHLLNDLDNDVAYAQGREVKTIFIGGGTPSLLSGPAMQTLLDGVRARLPLAADAEITMEANPGTVEADRFVDYQRAGVNRISIGVQSFSEEKLKRLGRIHGPQEAKRAAKLASGLGLRSFNLDLMHGLPDQSLEEALGDLRQAIELNPPHLSWYQLTIEPNTLFGSRPPVLPDDDALWDIFEQGHQLLTAAGYQQYETSAYAKPGYQCQHNLNYWRFGDYIGIGCGAHGKVTFPDGRILRTTKTRHPRGFMQGRYLESQRDVEATDKPFEFFMNRFRLLEAAPRVEFIAYTGLCEDVIRPQLDEAIAQGYLTECADYWQITEHGKLFLNSLLELFLAE", "soluble on expression in E. coli": "not soluble"},
      {"sequence": "MGSDKIHHHHHHMKMHVAFVHRRGFGQFAALARHLAEAGNEVTLVTETVDQRIPSVRVVRHRAEPGPQPNPHIARHLGVPDHHVRIGHRVAETFDAMGRLGQSPDIVLGHIGWGSMMFVKDVLPRVPALGYCEFFYRSEGADVGFAPDDRPDSETRKRLRLRNIAQLLSLEAMDGGISPTNWQKSLYPADARQRIAVCHEGVDTRRFRPDPAASLKLPDGRVLKAGDPVVTFVARDLEPYRGFPQALEAAAKVVRRHPDALFVFVGGDGVSYGAPPPGGGSWKDHLLASLDVPRERLIFPGVVPHSVLRQLFQISAAHLYLTYPFVLSWSVLEAMACGALVIGSDTAPVQEVIRSGRNGLLVPFFDTDALAETIVGALNRPDNFRELRGAARRTVEQRFRLDDCLARQLTLIGNLTGRNAAQAKETQFV", "soluble on expression in E. coli": "not soluble"},
      {"sequence": "MKEDEVNRCQIQNWYPRFKSLTIKTKFHKLPESFINYLIDDSGPFLLPHSVTNEDAMPNRVHNFEEEDDFQVPEEASDDEPLNRPSFPELEIEIRESIETLGGTIIPKLNWSSPKDAAWISPSQNLSCTCFNEIALLFRSSDSLTHDLFNAYDSCSDKVSSRPESFYLALRKWYPSLKPEMEFRCFVKSNELVGICQREVTTFYPVLLNEKDLLKGLIEEFFDDKIRFEFESENYTFDVYVTKERRVKLIDFNTWCGSTLPLMYTWEELEKIHGECDELELRIVESRLSVLPGLKTAVPYDYLDVSAGSGWAQVLKIVEEEFQKDDQSSDEVA", "soluble on expression in E. coli": "soluble"},
      {"sequence": "SFHGIPASGVMGGAPANKPELYEEVKLYKNAREREKYDNMAELFAVVKTLQALEKAYIKDCVTPNEYTGACSRLLVQYKAAFKQVQGSDVGSIDDFCRKYRLDCPLAMERIKEDRPITIKDDKGNLNRCIADIVSLFITVMDKLRLEIRAMDEIQPDLRELMETMNRMSNMPPDSEAKDKVSLWLTTLSSMSASDELDDSQVRQMLFDLESAYNAFNRFLHSS", "soluble on expression in E. coli": "soluble"},
      {"sequence": "MSLGEHILLNQTLSDVIHYFKSQRCGGVFDQQDRQVPVLNANQTVDVHGGWYDASGDVSKYLSHLSYANYLNPQQTPMVVWNILKGLSLLEGSEDIAAFTRTRLIEEALFGADFLVRMQNEKGFFYMTVFDKWSKDTAQREICAYETQLGHKFDDYQAGFRQGGGVAIAALAAASRLGVHGEYDQQKYRNAAENGYWHLKEHNTQYLNDGEENIIDEYCALLASVELFKATKETRYLEESRLWAQRLVARQMSDEQIQHFWSANQDGSRPYFHAAEAGLPGIALCEYLAIEDDSVQTESVKCIVNRACEFEIKISNKVTNPFGYPRQYVKGVNESKRDAFFVAHNNESGYWWQGENARLGSLATMAYLAQPHIASQEIQQQLSVFAQDALNWIVGLNPYDMCMLDGHGRNNPDYLPQYGFFNAKGGVCNGITGGFEDEEDIAFNPPAQKDDMLQNWRWGEQWIPHGAWYLLAIMSQAQHISQLATSKNIKEGHHHHHH", "soluble on expression in E. coli": "not soluble"},
      {"sequence": "MGSDKIHHHHHHMGKTIAIMQPYFLPYIGYWQLMKASDIFVVYDNIKYTKKGWVNRNRYLSNGKIKLFSIPLMKASNSLQIKDRYLAETYKLESAKTLRKIKDAYAVSKNFHPCFNLIERCFNANENNLFEFIYNSVAIFKDVLGLRAQLVVSSSIACDHSLNSAERVKAICTELGAESYINPVGGEHLYERDDFQKLGINLRFLKPRIEEYPQLSCQFQPYMSILDICMSCTFDEVKNNII", "soluble on expression in E. coli": "not soluble"},
      {"sequence": "MGSDKIHHHHHHMEHECDTLPHWLTGSPQGEAGHTPAACNSAVAAQPAYPAGTRQPEKSAHAAEASRAHDRTATGVAPTGFLTLFTEEEIGTPSPAARRAAPVISPLVRFGSAQDRIEFVRQRIRQLGFDSFSYSATRTSAHHKTMFVLTSYESRSWLTRYFRERYFELDPRVALASPTGLPFLWNTADMRADLPRAQMRSERLGGLIDMLEATGRKSGILTQMPLPEPELSASLCFNSETGNPRWMTESIVAETLMFAHMIHEFIWTHAKSVIGIAPAQQQRVTLSELQHAVLRAVVQGQRDKEIAYFLGLSPHNVDYHLRRLRQLFNVRNRVQLINVAQAYVS", "soluble on expression in E. coli": "not soluble"},
      {"sequence": "MSYGPQLPAFLMKGQIKENEVDDEAEEGAPQVYGPVIPGMEEPKNEKEKHDDQEETSVFGPSIPKEVREKLQNVENPAEDDEEDEEFPSQSYGPSIPSNFRPTVGPSIPGTFGDDSDEDIGPMPVAKGDEEKEAIDRAYRMVLQKEAEDDEKNFQPKREEWMTSVPKKLGNFGLGARTFKKGTTSERDASWEDAPGAKKRRNEETRSARSVGIAAADARQAAIVAEKTSGPSLLEIHQKKRDEKVKDAGYAQGERRPFDREKDMEVRGLKPGGSKEAVDRMKEFADRFANSKDQRFL", "soluble on expression in E. coli": "not soluble"},
      {"sequence": "GDYYDYLFKIVLIGDSGVGKSNLLSRFTRDEFNLESKSTIGVEFATKSIQLKNNKIIKAQIWDTAGQERYRAITSAYYRGAVGALLVYDITKKNSFENIEKWLKELRDNADSNIVILLVGNKSDLKHLRVINDNDATQYAKKEKLAFIETSALEATNVELAFHQLLNEIYNVRQKKQATKN", "soluble on expression in E. coli": "soluble"},
      {"sequence": "ATHTAQTQTHLNFTQIKTVDELNQALVEAKGKPVMLDLYADWCVACKEFEKYTFSDPQVQKALADTVLLQANVTANDAQDVALLKHLNVLGLPTILFFDGQGQEHPQARVTGFMDAETFSAHLRDRQPHHHHHH", "soluble on expression in E. coli": "soluble"},
      {"sequence": "MVEKEKKDEEETRKITISVKGIRDDVYRNVSELARHTGKTIGEITNDAYRTFLGTVEGVRNVSQSFIEGAKGAIPRYIDNFKKLEITADDLKDLGQKVAFRNIDELTFKNITDEEFSKYVAFIDGVKVLKIPKTVKKTTVIKISTFVDEIIQE", "soluble on expression in E. coli": "not soluble"},
      {"sequence": "KQGQTALGVEFGSTRIKSVLIDANNFEVLASGSFEWDNQLVNGIWTYSLDDVWKGLQASYTDLKAEVKDKYDFKLSKIGQIGISAMMHGYLVFDQADKQLAEFRTWRNAITEQAAGELSKLFNFNIPQRWCIAHLYQAILNQEKSVSQIDFMTTLAGYVHWRLTGKKVTGIGDASGIFPIDSNSKDYDQKKLDQFSDLDGVEKQPWDIKRILPKVLLAGQNAGQLTKEGSLLIDPSGDLQDGSVFCPPEGDA", "soluble on expression in E. coli": "not soluble"},
      {"sequence": "DDIEADHVGSYGIVVYQSPGDIGQYTFEFDGDELFYVDLDKKETIWMLPEFAQLRSFDPQGGLQNIATGKHNLGVLTKRSNSTPATNEAPQATVFPKSPVLLGQPNTLICFVDNIFPPVINITWLRNSKSVADGVYETSFFVNRDYSFHKLSYLTFIPSDDDIYDCKVEHWGLEEPVLKHWEP", "soluble on expression in E. coli": "soluble"},
      {"sequence": "MSLRLGVTGLSRAGKTVFISSLVHNLLNGGRLPLFEAMRSGRVSNVRLEPQPDDAIPRFQYEDHIQALVRDRLWPDSTRAISELRITLDYQSASGWGRWFSAGKLSIDIVDYPGEWLLDLPLLSQDYKQFSDATVALAGSGIRAELAQEWLAIASSLDINAPADEMTARRLAESFAAYLKACKSDERSLSTLPPGRFLMPGDLEGSPALTFAPLPGVTDAKAPKGSLRAMMERRYDAYKSIVVKPFFREHFARLDRQIVLIDTLQAVNRGPEAVQDLERALGDVLACFRPGTNSILSSLIRRRIDKVLIAATKADHLHHESHDRLERLTRRLVDRAITTIGMNGAGIEVMALASVRATREASVRQDGHELPVIVGTPMAGETINGEIFDGNRKTAIFPGDLPEDPEPLFRSIDQDGDKATLPDVNVVRFRPPNIDEPGSGGIRLSVPHIRLDRAMQFLFGDKLAEGHHHHHH", "soluble on expression in E. coli": "soluble"},
      {"sequence": "MGSDKIHHHHHHMDHRQTFLSRYDTAACKAAHEIISCYSTSFGLATKLLRGRIRTDISNLYAMVRIADEIVDGTAQMAGLEPNAVSQLLDDYEAAVLAAPTQRFHADPILHAWALSARRCKFKTEHVQAFFTSMRNDLHKHNYEAAEFNEYVYGSAEVIGLMCLDAFLVEQHPRPHERTMMEHGARSLGSAFQKINFLRDLEEDTHVLGRNYFPQLTGELTDATKALLVADIRTDLAAAYRCIPLLPFDARVGVQAAADLFTALTDRIQEASAVEVTHTRIRIPKAQKIAIITRAPWRALHG", "soluble on expression in E. coli": "not soluble"},
      {"sequence": "MGSDKIHHHHHHMTSSVASDLSSFVRFADIPPEFQPTDAHPIRVRSRLMPSGRRIARHTHAWAQVAYASRGVLRVATTGTTWMVPPSRAIWVPPHVTHEVVAVEDAFLRTLYITESTVPAGLDTPRVVEVSDLLREVIAALDTPGISATREQLLGALALDELTRSEPLPLSVPMPNEKRLRALCEAVIADPTHGESLEQWASSVGASTRTIARLFRQELGVSFSQWRQQAILARAIPLLSQGRPLSHVALELGYQSQSAFSAMFRRAFGESPRAFIERGSEHRVEDGERGDMETDNETAAQDRADVADVADVADDAGDAGDAGDTGDTGDTGDVGDVGDADDSEL", "soluble on expression in E. coli": "not soluble"},
      {"sequence": "MSDYQVLLYYKYTTIDDPETFAKEHLAACKEMELKGRILVATEGINGTVSGTVEATNKYMDYMANDARFADMVFKIDAADAHAFKKMHVRPRAEIVSLSLEEDVNPLEVTGTYLEPSEFREALLDEDTVILDARNDYEFDIGHFRGAVRPDIQNFRELPGWIEDNREQLADKKIVTYCTGGIRCEKFSGWLKTAGFDDVSQLHGGIATYGKNEETKGELWDGQMYVFDERIAVPINQVNPTIVGKDYFDGTPCERYINCANPYCNKQILASIENEKKYLRSCSHDCRVHPANLYTKNLSKEEFTERLQAIDETLPEMVQ", "soluble on expression in E. coli": "not soluble"},
      {"sequence": "MSEELSGVIIVLHKELSCRKEITDLQEISIALPDLMLSPKSKIVSDPASSKIDLNDRTTCSAEPNLFFVIFLSKNLNFSSKVFLSAVNNKSFSIQTRIT", "soluble on expression in E. coli": "not soluble"},
      {"sequence": "VFADKLDITVDQKKIILPYWLSRPVSYGAVIIVSGGETAQWSLLLEQFAKGLARNGWSVVLLNCTKNNSIPWINQLPEVISTLRQNNNKRIVLVHYGDQLNLALEYFSKPQSKMINGLVMLSAYDLNRNLQKVPRLRFPLFDIVGQFDYDMVRQQRKSREEKFKENSYLAIDIPGATHDYQYSQQLLLAFVHGWM", "soluble on expression in E. coli": "not soluble"}
    ]}
  ]
}
